According to paper PMC11574045, “A cofactor-induced repressive type of transcription factor condensation can be induced by synthetic peptides to suppress tumorigenesis” (The EMBO Journal, 2024):

B1: POU3F3 (protein, UniProt P20264 1-500, looked up)
POU domain, class 3, …: MATAASNPYLPGNSLLAAGSIVHSDAAGAGGGGGGGGGGGGGGAGGGGGGMQPGSAAVTSGAYRGDPSSVKMVQSDFMQGAMAASNGGHMLSHAHQWVTALPHAAAAAAAAAAAAVEASSPWSGSAVGMAGSPQQPPQPPPPPPQGPDVKGGAGRDDLHAGTALHHRGPPHLGPPPPPPHQGHPGGWGAAAAAAAAAAAAAAAAHLPSMAGGQQPPPQSLLYSQPGGFTVNGMLSAPPGPGGGGGGAGGGAQSLVHPGLVRGDTPELAEHHHHHHHHAHPHPPHPHHAQGPPHHGGGGGGAGPGLNSHDPHSDEDTPTSDDLEQFAKQFKQRRIKLGFTQADVGLALGTLYGNVFSQTTICRFEALQLSFKNMCKLKPLLNKWLEEADSSTGSPTSIDKIAAQGRKRKKRTSIEVSVKGALESHFLKCPKPSAQEITNLADSLQLEKEVVRVWFCNRRQKEKRMTPPGIQQQTPDDVYSQVGTVSADTPPPHHGLQTSVQ
B2: POU3F4 (protein, UniProt P49335 1-361, looked up)
POU domain, class 3, …: MATAASNPYSILSSTSLVHADSAGMQQGSPFRNPQKLLQSDYLQGVPSNGHPLGHHWVTSLSDGGPWSSTLATSPLDQQDVKPGREDLQLGAIIHHRSPHVAHHSPHTNHPNAWGASPAPNPSITSSGQPLNVYSQPGFTVSGMLEHGGLTPPPAAASAQSLHPVLREPPDHGELGSHHCQDHSDEETPTSDELEQFAKQFKQRRIKLGFTQADVGLALGTLYGNVFSQTTICRFEGLQLSFKNMCKLKPLLNKWLEEADSSTGSPTSIDKIAAQGRKRKKRTSIEVSVKGVLETHFLKCPKPAAQEISSLADSLQLEKEVVRVWFCNRRQKEKRMTPPGDQQPHEVYSHTVKTDTSCHDL
B3: POU4F1 (protein, UniProt Q01851 1-419, looked up)
POU domain, class 4, …: MMSMNSKQPHFAMHPTLPEHKYPSLHSSSEAIRRACLPTPPLQSNLFASLDETLLARAEALAAVDIAVSQGKSHPFKPDATYHTMNSVPCTSTSTVPLAHHHHHHHHHQALEPGDLLDHISSPSLALMAGAGGAGAAAGGGGAHDGPGGGGGPGGGGGPGGGPGGGGGGGPGGGGGGPGGGLLGGSAHPHPHMHSLGHLSHPAAAAAMNMPSGLPHPGLVAAAAHHGAAAAAAAAAAGQVAAASAAAAVVGAAGLASICDSDTDPRELEAFAERFKQRRIKLGVTQADVGSALANLKIPGVGSLSQSTICRFESLTLSHNNMIALKPILQAWLEEAEGAQREKMNKPELFNGGEKKRKRTSIAAPEKRSLEAYFAVQPRPSSEKIAAIAEKLDLKKNVVRVWFCNQRQKQKRMKFSATY
B4: POU5F2 (protein, UniProt Q8N7G0 1-328, looked up)
POU domain, class 5, …: MAGHRPSNHFCPLPGSGGGGPRGPMPLRVDTLTWLSTQAAPGRVMVWPAVRPGICPGPDVWRIPLGPLPHEFRGWIAPCRPRLGASEAGDWLRRPSEGALPGPYIALRSIPKLPPPEDISGILKELQQLAKELRQKRLSLGYSQADVGIAVGALFGKVLSQTTICRFEAQQLSVANMWKLRPLLKKWLKEVEAENLLGLCKMEMILQQSGKWRRASRERRIGNSLEKFFQRCPKPTPQQISHIAGCLQLQKDVVRVWFYNRSKMGSRPTNDASPREIVGTAGPPCPGAPVCFHLGLGLPVDIPHYTRLYSAGVAHSSAPATTLGLLRF
B5: PPARD (protein, UniProt Q03181 1-441, looked up)
Peroxisome …: MEQPQEEAPEVREEEEKEEVAEAEGAPELNGGPQHALPSSSYTDLSRSSSPPSLLDQLQMGCDGASCGSLNMECRVCGDKASGFHYGVHACEGCKGFFRRTIRMKLEYEKCERSCKIQKKNRNKCQYCRFQKCLALGMSHNAIRFGRMPEAEKRKLVAGLTANEGSQYNPQVADLKAFSKHIYNAYLKNFNMTKKKARSILTGKASHTAPFVIHDIETLWQAEKGLVWKQLVNGLPPYKEISVHVFYRCQCTTVETVRELTEFAKSIPSFSSLFLNDQVTLLKYGVHEAIFAMLASIVNKDGLLVANGSGFVTREFLRSLRKPFSDIIEPKFEFAVKFNALELDDSDLALFIAAIILCGDRPGLMNVPRVEAIQDTILRALEFHLQANHPDAQYLFPKLLQKMADLRQLVTEHAQMMQRIKKTETETSLHPLLQEIYKDMY
B6: PQBP1 (protein, UniProt O60828 2-265, looked up)
Polyglutamine-binding protein …: PLPVALQTRLAKRGILKHLEPEPEEEIIAEDYDDDPVDYEATRLEGLPPSWYKVFDPSCGLPYYWNADTDLVSWLSPHDPNSVVTKSAKKLRSSNADAEEKLDRSHDKSDRGHDKSDRSHEKLDRGHDKSDRGHDKSDRDRERGYDKVDRERERDRERDRDRGYDKADREEGKERRHHRREELAPYPKSKKAVSRKDEELDPMDPSSYSDAPRGTWSTGLPKRNEAKTGADTTAAGPLFQQRPYPSPGAVLRANAEASRTKQQD
B7: PRDM10 (protein, UniProt Q9NQV6 1-1147, looked up)
PR domain zinc finger protein …: MDSKDESSHVWPTSAEHEQNAAQVHFVPDTGTVAQIVYTDDQVRPPQQVVYTADGASYTSVDGPEHTLVYIHPVEAAQTLFTDPGQVAYVQQDATAQQASLPVHNQVLPSIESVDGSDPLATLQTPLGRLEAKEEEDEDEDEDTEEDEEEDGEDTDLDDWEPDPPRPFDPHDLWCEECNNAHASVCPKHGPLHPIPNRPVLTRARASLPLVLYIDRFLGGVFSKRRIPKRTQFGPVEGPLVRGSELKDCYIHLKVSLDKGDRKERDLHEDLWFELSDETLCNWMMFVRPAQNHLEQNLVAYQYGHHVYYTTIKNVEPKQELKVWYAASYAEFVNQKIHDISEEERKVLREQEKNWPCYECNRRFISSEQLQQHLNSHDEKLDVFSRTRGRGRGRGKRRFGPGRRPGRPPKFIRLEITSENGEKSDDGTQDLLHFPTKEQFDEAEPATLNGLDQPEQTTIPIPQLPQETQSSLEHEPETHTLHLQPQHEESVVPTQSTLTADDMRRAKRIRLELQNAALQHLFIRKSFRPFKCLQCGKAFREKDKLDQHLRFHGREGNCPLTCDLCNKGFISSTSLESHMKLHSDQKTYSCIFCPESFDRLDLLKDHVAIHINDGYFTCPTCKKRFPDFIQVKKHVRSFHSEKIYQCTECDKAFCRPDKLRLHMLRHSDRKDFLCSTCGKQFKRKDKLREHMQRMHNPEREAKKADRISRSKTFKPRITSTDYDSFTFKCRLCMMGFRRRGMLVNHLSKRHPDMKIEEVPELTLPIIKPNRDYFCQYCDKVYKSASKRKAHILKNHPGAELPPSIRKLRPAGPGEPDPMLSTHTQLTGTIATPPVCCPHCSKQYSSKTKMVQHIRKKHPEFAQLSNTIHTPLTTAVISATPAVLTTDSATGETVVTTDLLTQAMTELSQTLTTDYRTPQGDYQRIQYIPVSQSASGLQQPQHIQLQVVQVASATSPHQSQQSTVDVGQLHDPQPYPQHAIQVQHIQVSGQPLSPSAQQAQQGLSPSHIQGSSSTQGQALQQQQQQQQNSSVQHTYLPSAWNSFRGYSSEIQMMTLPPGQFVITDSGVATPVTTGQVKAVTSGHYVLSESQSELEEKQTSALSGGVQVEPPAHSDSLDPQTNSQQQTTQYIITTTTNGNGSSEVHITKP
B8: PRDM12 (protein, UniProt Q9H4Q4 1-367, looked up)
PR domain zinc finger protein …: MMGSVLPAEALVLKTGLKAPGLALAEVITSDILHSFLYGRWRNVLGEQLFEDKSHHASPKTAFTAEVLAQSFSGEVQKLSSLVLPAEVIIAQSSIPGEGLGIFSKTWIKAGTEMGPFTGRVIAPEHVDICKNNNLMWEVFNEDGTVRYFIDASQEDHRSWMTYIKCARNEQEQNLEVVQIGTSIFYKAIEMIPPDQELLVWYGNSHNTFLGIPGVPGLEEDQKKNKHEDFHPADSAAGPAGRMRCVICHRGFNSRSNLRSHMRIHTLDKPFVCRFCNRRFSQSSTLRNHVRLHTGERPYKCQVCQSAYSQLAGLRAHQKSARHRPPSTALQAHSPALPAPHAHAPALAAAAAAAAAAAAHHLPAMVL
B9: PRDM16 (protein, UniProt Q9HAZ2 1-1276, looked up)
Histone-lysine …: MRSKARARKLAKSDGDVVNNMYEPNRDLLASHSAEDEAEDSAMSPIPVGPPSPFPTSEDFTPKEGSPYEAPVYIPEDIPIPADFELRESSIPGAGLGVWAKRKMEAGERLGPCVVVPRAAAKETDFGWEQILTDVEVSPQEGCITKISEDLGSEKFCVDANQAGAGSWLKYIRVACSCDDQNLTMCQISEQIYYKVIKDIEPGEELLVHVKEGVYPLGTVPPGLDEEPTFRCDECDELFQSKLDLRRHKKYTCGSVGAALYEGLAEELKPEGLGGGSGQAHECKDCERMFPNKYSLEQHMVIHTEEREYKCDQCPKAFNWKSNLIRHQMSHDSGKRFECENCVKVFTDPSNLQRHIRSQHVGARAHACPDCGKTFATSSGLKQHKHIHSTVKPFICEVCHKSYTQFSNLCRHKRMHADCRTQIKCKDCGQMFSTTSSLNKHRRFCEGKNHYTPGGIFAPGLPLTPSPMMDKAKPSPSLNHASLGFNEYFPSRPHPGSLPFSTAPPTFPALTPGFPGIFPPSLYPRPPLLPPTSLLKSPLNHTQDAKLPSPLGNPALPLVSAVSNSSQGTTAAAGPEEKFESRLEDSCVEKLKTRSSDMSDGSDFEDVNTTTGTDLDTTTGTGSDLDSDVDSDPDKDKGKGKSAEGQPKFGGGLAPPGAPNSVAEVPVFYSQHSFFPPPDEQLLTATGAAGDSIKAIASIAEKYFGPGFMGMQEKKLGSLPYHSAFPFQFLPNFPHSLYPFTDRALAHNLLVKAEPKSPRDALKVGGPSAECPFDLTTKPKDVKPILPMPKGPSAPASGEEQPLDLSIGSRARASQNGGGREPRKNHVYGERKLGAGEGLPQVCPARMPQQPPLHYAKPSPFFMDPIYSRVEKRKVTDPVGALKEKYLRPSPLLFHPQMSAIETMTEKLESFAAMKADSGSSLQPLPHHPFNFRSPPPTLSDPILRKGKERYTCRYCGKIFPRSANLTRHLRTHTGEQPYRCKYCDRSFSISSNLQRHVRNIHNKEKPFKCHLCNRCFGQQTNLDRHLKKHEHENAPVSQHPGVLTNHLGTSASSPTSESDNHALLDEKEDSYFSEIRNFIANSEMNQASTRTEKRADMQIVDGSAQCPGLASEKQEDVEEEDDDDLEEDDEDSLAGKSQDDTVSPAPEPQAAYEDEEDEEPAASLAVGFDHTRRCAEDHEGGLLALEPMPTFGKGLDLRRAAEEAFEVKDVLNSTLDSEALKHTLCRQAKNQAYAMMLSLSEDTPLHTPSQGSLDAWLKVTGATSESGAFHPINHL
B10: BANP (protein, UniProt Q8N9N5 1-519, looked up)
Protein BANP: MMSEHDLADVVQIAVEDLSPDHPVVLENHVVTDEDEPALKRQRLEINCQDPSIKTICLRLDSIEAKLQALEATCKSLEEKLDLVTNKQHSPIQVPMVAGSPLGATQTCNKVRCVVPQTTVILNNDRQNAIVAKMEDPLSNRAPDSLENVISNAVPGRRQNTIVVKVPGQEDSHHEDGESGSEASDSVSSCGQAGSQSIGSNVTLITLNSEEDYPNGTWLGDENNPEMRVRCAIIPSDMLHISTNCRTAEKMALTLLDYLFHREVQAVSNLSGQGKHGKKQLDPLTIYGIRCHLFYKFGITESDWYRIKQSIDSKCRTAWRRKQRGQSLAVKSFSRRTPNSSSYCPSEPMMSTPPPASELPQPQPQPQALHYALANAQQVQIHQIGEDGQVQVGHLHIAQVPQGEQVQITQDSEGNLQIHHVGQDGQLLEATRIPCLLAPSVFKASSGQVLQGAQLIAVASSDPAAAGVDGSPLQGSDIQVQYVQLAPVSDHTAGAQTAEALQPTLQPEMQLEHGAIQIQ

The molecules below were run on HEK293FT cells transfected with TF library (assay: Screening of TF condensates based on fluorescent puncta). Details: Figure 1B numerical data; TF library screen, one value per transcriptional factor.
Assay type: cell-based
In short: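 Puncta scoring used automated confocal imaging of fifty random fields per well, after anti-Flag or anti-GAL4 immunofluorescence (Alexa 488) in PFA-fixed cells. HEK293FT cells carried TF library plasmids delivered with PEI (1.6 μg/ml DNA). At 60 h they were switched for 12 h to glucose-containing or glucose-free medium.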
B1 was tested, and the “Z score of condensed fraction” value was 1.399.
B2 was tested, and the “Z score of condensed fraction” value was -0.484.
In the case of B3, the “Z score of condensed fraction” value is reported as -0.7489.
With B4 the “Z score of condensed fraction” value was 1.226.
B5 was tested, and the “Z score of condensed fraction” value was -0.9649.
For B6, the “Z score of condensed fraction” value was -0.5347.
With B7 the “Z score of condensed fraction” value was 0.3409.
For B8, the “Z score of condensed fraction” value was -1.027.
B9 was tested, and the “Z score of condensed fraction” value was -0.4468.
For B10, the “Z score of condensed fraction” value was 1.258.
